Data set [1] addresses NF-kB p65 (Rel A) homodimer (UniProt Q04206). The settings on record: 1:1 stoichiometry.
The target in the next data set is NF-kB p50 homodimer (UniProt P19838). The settings on record: also captured on SELDI array; lost on more stringent wash.

Among the data in patent US20110212843 are Kd values, retold here.

NF-kB p65 (Rel A) homodimer, sequence (Q04206 whole entry): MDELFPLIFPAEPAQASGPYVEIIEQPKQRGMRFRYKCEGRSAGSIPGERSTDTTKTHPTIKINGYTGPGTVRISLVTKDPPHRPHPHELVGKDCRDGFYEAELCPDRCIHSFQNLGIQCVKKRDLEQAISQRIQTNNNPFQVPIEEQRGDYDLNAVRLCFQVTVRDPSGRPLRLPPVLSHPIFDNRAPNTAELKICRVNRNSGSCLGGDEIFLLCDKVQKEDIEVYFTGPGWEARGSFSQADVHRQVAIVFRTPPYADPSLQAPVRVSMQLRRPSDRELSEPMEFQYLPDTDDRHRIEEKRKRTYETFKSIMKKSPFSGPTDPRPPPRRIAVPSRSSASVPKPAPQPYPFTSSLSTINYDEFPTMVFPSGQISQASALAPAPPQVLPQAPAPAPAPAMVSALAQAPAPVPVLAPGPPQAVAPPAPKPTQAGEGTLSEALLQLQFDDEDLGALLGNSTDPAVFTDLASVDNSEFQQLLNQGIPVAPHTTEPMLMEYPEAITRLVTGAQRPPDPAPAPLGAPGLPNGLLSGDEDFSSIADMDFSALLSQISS
NF-kB p50 homodimer, sequence (P19838 1-433): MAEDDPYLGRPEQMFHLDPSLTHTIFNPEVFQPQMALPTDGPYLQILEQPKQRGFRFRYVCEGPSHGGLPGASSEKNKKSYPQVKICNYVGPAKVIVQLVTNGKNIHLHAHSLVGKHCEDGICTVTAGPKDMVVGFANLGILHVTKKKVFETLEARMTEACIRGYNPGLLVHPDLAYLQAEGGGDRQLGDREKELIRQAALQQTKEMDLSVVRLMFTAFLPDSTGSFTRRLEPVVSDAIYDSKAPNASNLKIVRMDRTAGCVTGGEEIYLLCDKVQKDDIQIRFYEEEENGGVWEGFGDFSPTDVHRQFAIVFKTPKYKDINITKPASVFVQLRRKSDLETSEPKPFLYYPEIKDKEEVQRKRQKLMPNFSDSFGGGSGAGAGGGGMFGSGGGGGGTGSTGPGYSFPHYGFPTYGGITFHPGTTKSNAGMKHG

Turning to “IgkB 22-mer duplex (NF-kB promoter element)”, the Kd (in data set [1]; with NF-kB p50 homodimer) was 4 nM in each case.
